Data published in the supplement of paper PMC10567573.

B1: INTS3 (parent)
chain: FHPIKETVVEEPVDITPYLDQLDE
B2: KCNAB2 (parent)
chain: SSIIHEIDSILGNKPYSKKDYRS

Variants of: B1
Assay: protein stability index of a GFP-peptide fusion (GPS, HEK-293T) (PSI 1-6); higher = more stable
Conditions: c terminus: a fixed tail appended
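Further: lentivirally expressed fusions sorted by FACS into six bins by GFP to DsRed ratio, PSI derived from sequencing read proportions per bin multiplied by bin number.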

Protein stability index, by site and new letter:
P17: D 3.58; W 3.61; R 2.39; I 2.49; E 3.89; Y 3.75; F 3.08; S 3.12; K 2.88; V 3.21; M 3.17; A 3.25
L22: T 3.38; Y 3.16; V 3.41
L19: W 2.56; K 3.24; T 3.31; I 3.12; N 3.66; C 3.21
E11: H 2.87; V 2.79; P 2.95; R 2.49; C 2.78
I15: G 3.23; T 4.26; H 3.03; D 4.18; W 2.39; L 3.25; Q 3.79
D14: A 3.05; N 3.04; Q 2.91; K 3.13; P 3.09; Y 2.11; S 2.75; M 2.14; E 3.18
E6: T 3.28; L 1.9; S 2.52; Y 1.75; G 3.04; V 1.87; A 2.42
V8: Q 4.21; W 2.54; S 3.38; A 3.87; H 3.19; E 4.18; D 3.9
H2: I 3.71; W 4.2; K 5.24; R 4.81; N 5.18; E 5.26; S 5.47; G 5.35; A 4.34; L 4.87
D23: Y 2.18; A 2.35; R 2.63; S 2.68
V9: D 3.62; G 3.93; R 3.08; P 3.62; L 3.19; F 2.65; S 3.25
E10: I 2.08; A 2.39; V 2.12; H 2.56
F1: W 4.97; S 5.58; H 5.5; I 4.99; V 5.44; C 5.32; Q 5.65; P 5.74; K 5.66; E 5.2; D 5.78
D20: Y 2.08; V 2.11; L 2.28; A 3.11; F 2.41
V13: L 3.22; W 2.92; G 3.27; R 2.58; C 3.08; Y 3.2; D 3.83; K 3.05
P12: R 3.01; M 2.65; V 3.06; G 3.58; K 3.04; H 3.29; F 3.65; A 2.99
P3: E 5; V 4.19
T16: W 2.33; S 3.32; L 3.05; H 2.79; F 3.2; I 3.41; V 3.14; N 3.18; D 3.79
Y18: R 3.58; A 3.58; E 3.36; K 3.77; I 2.7; V 3.87
K5: T 4.29; R 3.9; C 3.99; N 4.8; V 4.17; A 4.47
I4: A 2.98; R 3.17; K 3.08; Q 3.83
T7: F 2.32; D 3.85; A 3.73; R 3.04; S 3.57; L 2.7; C 2.66; W 2.89; H 3.35; Q 3.26
Q21: K 3.05; E 3.62; Y 2.5; I 3.26; R 2.71; L 3.05; M 3.42; H 3.26; N 3.06; P 3.15
E24: G 2.73; F 1.93; D 3.75; L 2.85; T 3.09; N 3.17; Q 2.7; Y 2.47

Variants of: B2
Assay: as above
Conditions: c terminus: native

Protein stability index of substitutions, site by site:
S2: T 3.75; R 3.13; A 2.89; Q 3.07; F 2.4; E 4.02; I 1.72; N 3.43; C 2.22; V 1.89; H 2.31; W 2.66; G 3.2; L 1.77; P 3.68; M 1.98; K 1.66; Y 2.24; D 3.81
D8: N 2.69; R 2.84; S 2.45; E 2.16; G 2.41; Y 2.14; A 2.06; V 2.57; K 2.07; Q 3.06; T 2.25; H 2.06; P 2.77; C 1.59
I10: A 4.13; D 4.05; E 3.45; F 2.32; C 3.79
H5: I 1.48; V 2.38; L 2.21; W 2.2; F 2.21; K 3.83; N 3.44; D 3.7; R 3.64; S 2.98; C 2.42; Q 3.02; T 3.6; Y 2.05; G 3.07; M 1.76; A 3.83; E 2.7; P 3.09
I4: H 2.86; A 3.44; T 3.95; K 2.81; C 3.6; E 3.9; F 1.29; R 2.94; S 3.25; Q 4.26; Y 2.75; V 2.46; W 1.4; N 4.51; M 2.59; G 2.69; D 4.28; L 2.56; P 4.63
I3: R 4.09; H 4; S 4.63; A 3.94; W 1.72; E 4.16; K 2.78; G 4.46; Q 2.53; T 4.58; F 2.83; D 4.67; M 3.17; N 4.2; C 3.85; Y 3.17; L 2.9; P 3.96; V 3.61
S9: I 2.08; R 2.58; Q 3.19; L 2.38; P 3.81; M 2.2; K 3.54; E 3.66; W 2.9; H 2.8; N 2.94; Y 2.24; F 1.75; V 2.53; A 2.48; D 2.89; G 3.66; T 3.41
S1: F 2.06; V 2.34; R 2.78; C 2.47; I 2.67; T 2.6; K 3.55; G 3.04; M 1.8; E 2.82; H 2.46; N 3.97; L 2.13; P 3.28; A 2.43; Y 1.59; Q 2.94; D 3.67
E6: A 1.72; P 2.9; K 3.21; Y 1.69; I 2.01; D 2.97; V 3.15; S 2.66; L 3.25; T 2.23; G 2.82; R 2.26; Q 2.62; H 2.31; W 3.44; C 1.94; F 3.61; N 3.65
I7: E 4.51; M 2.75; P 4.47; R 3.86; D 4.4; N 4.63; G 4.45; Y 4.53; Q 4.42; H 3.97; T 4.7; F 2.71; C 4.15; K 3.45; A 4.65; S 4.38; L 2.86
